In patent US8313920B2, “High-throughput assay for evaluating dipeptidyl peptidase I activity” (Janssen Research & Development, LLC, priority 2008, dated 2012):

Substrate: CC[C@H](C)[C@H](NC(=O)[C@H](CCC(=O)O)NC(=O)CN)C(=O)N[C@H](C(=O)NCC(=O)NCC(=O)N[C@H](C(=O)N[C@@H](CCC(=O)O)C(=O)N[C@@H](CS)C(=O)N[C@@H](CCCCN)C(=O)N1CCC[C@H]1C(=O)N[C@@H](Cc1c[nH]cn1)C(=O)N[C@@H](CO)C(=O)N[C@@H](CCCNC(=N)N)C(=O)N1CCC[C@H]1C(=O)N[C@@H](Cc1ccc(O)cc1)C(=O)N[C@@H](CCSC)C(=O)N[C@@H](C)C(=O)N[C@@H](Cc1ccc(O)cc1)C(=O)N[C@@H](CC(C)C)C(=O)O)[C@@H](C)O)[C@@H](C)CC
Assay: Initial velocity analysis of DPPI with the 20-mer substrate, mass spectrometry
Format: biochemical, human
Settings: other: 20-mer as DPPI substrate, about 2 nM DPPI, pH 7.0, about 27° C.
Experimental: FIG. 1. Initial velocity analysis for DPP1 kinetic constant in reaction with a 20-mer substrate (A) and a dipeptide substrate (B). (A) About 2 nM of DPPI was used in the reaction with the 20-mer substrate of […] (SEQ ID NO:1) and the reaction was monitored using a mass spectrometry system. (B) About 0.4 nM of DPP1 was used in the reaction with the dipeptide substrate of GR-α-methylcoumarin and the reaction was monitored using a rate-based format monitoring fluorescence at EM=460 nm and EX=380 nm. Initial rates are taken from kinetic data where less than 7% substrate turnover was achieved.
Once the rate of the substrate turnover under the initial velocity condition, the kinetic constants for DPPI and the peptide substrate are calculated using the following formula (I): Y=VMAX((X+Et+KM)−((((Et+X+KM)^2)−(4XEt))^0.5))/(2Et) wherein • Y is concentration of substrate turnover • X is substrate concentration • Et is DPPI concentration • KM is substrate concentration at ½ VMAX • VMAX is substrate turnover at substrate saturation
About 2 nM of DPPI was incubated with about 0.5, 1, 2, 4, 8, 16, 32, 64, 90, 128, 150 μM of the 20-mer substrate in the reaction buffer of 50 mM HEPES (pH 7.0), 100 mM NaCl, 0.005% Tween-20, and 2 mM of DTT or GSH. […]

B1: dipeptidyl peptidase I (DPPI) (Homo sapiens) (protein)
chain 1: not shown
chain 2: LPTSWDWRNVHGINFVSPVRNQASCGSCYSFASMGMLEARIRILTNNSQTPILSPQEVVSCSQYAQGCEGGFPYLIAGKYAQDFGLVEEACFPYTGTDSPCKMKEDCFRYYSSEYHYVGGFYGGCNEALMKLELVHHGPMAVAFEVYDDFLHYKKGIYHHTGLR
chain 3: not shown
notes: made in house; host or cells: Hi5 insect cells (baculovirus)
  Km: 62 µM
